What was measured:
[1] = molecular target: T1, mIL31-CEE: purified, recombinant mouse IL-31 (produced in BHK cells) fused at the C-terminus with a peptide … (mouse, UniProt Q6EAL8 31-163); test: ELISA on plate bound mIL-31-CEE, first round clone supernatant
T1 construct: Biotinylated in the capture ELISA
T1 sequence: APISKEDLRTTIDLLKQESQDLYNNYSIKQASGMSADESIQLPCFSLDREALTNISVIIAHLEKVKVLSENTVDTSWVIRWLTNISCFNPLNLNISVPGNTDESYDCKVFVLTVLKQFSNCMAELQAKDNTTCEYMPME

[2] = molecular target: T2, IL-31-CEE: purified, recombinant human IL-31 fused at the C-terminal with a peptide consisting of the … (human, UniProt Q6EBC2 24-164); test: cell-based or functional assay
T2 sequence: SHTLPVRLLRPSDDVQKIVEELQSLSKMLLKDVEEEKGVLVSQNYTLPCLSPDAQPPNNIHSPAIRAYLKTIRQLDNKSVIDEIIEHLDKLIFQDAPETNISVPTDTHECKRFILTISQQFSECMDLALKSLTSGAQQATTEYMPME

[3] = molecular target: T3, CEE peptide tag, sequence EYMPME; test: ELISA on plate bound mIL-31-CEE (tag tested as part of that protein)
T3 construct: Tested only as the C-terminal tag of the other species' IL-31-CEE, not as a free peptide; also called CEE tag
T3 peptide: EYMPME

[4] = molecular target: T2, IL-31-CEE: purified, recombinant human …; test: capture ELISA: mAb of first round clone supernatant captured on anti-mouse IgG Fc, biotinylated IL-31-CEE
Procedure: These new supernatants were tested using the cell-based neutralization assay (serial 3-fold dilutions starting with neat supernatant and proceeding to a final 1:243 dilution) as well as a “capture” style ELISA assay similar to that used in the development of the rat anti-murine IL-31 mAbs with the following differences; 1) sheep anti-mouse IgG, Fc specific antibody (Jackson Immunoresearch) (1 ug/mL) as plate coating antibody, 2) plates blocked once with PBS-Tween+1% BSA for 1 hr, 3) a single titration of each supernatant added to wells (serial 3-fold dilutions starting with neat supernatant and proceeding to a final 1:2187 dilution), and 4) addition of biotinylated IL-31-CEE (3:1 molar ratio of biotin:protein), 200 ng/mL. This assay was felt to be more pertinent than the binding of antibody to plate bound IL-31-CEE as it assessed the ability of antibody to bind to IL-31-CEE in solution, a property essential to a good antibody for sandwich style ELISAs. It was in fact observed that a number of the master wells supernatants containing antibody that bound well to plate bound IL-31-CEE poorly recognized this molecule in solution.
To reduce the number of hybridomas going into further subcloning, two new assays were performed with exhausted supernatant from each of the selected first round clones. […]

| Binder | binding result [1] | IC50 (ng/mL), cell-based neutralization (luciferase), IL-31-CEE at 300 pg/mL [2] | IC50 (pM), cell-based neutralization (luciferase), IL-31-CEE at 300 pg/mL [2] | binding result [3] | EC50 [4] |
| --- | --- | --- | --- | --- | --- |
| mouse anti-human IL-31 mAb from clone 292.12.3.1 (ATCC Patent Deposit Designation PTA-6815) (antibody, mouse IgG1, V domains shown, Mouse IgG1, kappa; assays used supernatant of first round clone 292.12.3) VH: QVQLQQSGAELARPGASVNLSCKASGYTLTRYWMQWVKQRPGQGLEWIGAIYPGDGDTRYSQKFKGKATLTADKSSSTAYMQLNNLASEDSAVYYCAFPDGYYAAPYGMDYWGQGTSVTVSS VL: DIQMTQSPASLSASVGETVTITCRASGNIHNYLAWYQQKQGKSPQLLVYNAKTLADGVPSRFSGSRSETQYSLKINSLQPEDFGSYYCQHFWSTPWTFGGGTKLEIK | no binding | 1.2 ng/mL | 7.98 pM | no binding |  |
| mouse anti-human IL-31 mAb from clone 292.84.1.6 (ATCC Patent Deposit Designation PTA-6871) (antibody, V domains shown, Mouse IgG2a, kappa; Assays used first round clone 292.84.1) VH: QVQLQQSGAELARPGASVNLSCKASGYTLTRYWMQWVKQRPGQGLEWIGTIYPGDGDTRYSQKFKGKASLTADKSSNTAYMQLNNLASEDSAVYFCAFPDGYYAAPYGMDYWGQGTSVTVSS VL: DIQMTQSPASLSASVGETVTITCRASGNIHNYLAWYQQKQGRSPQLLVYNAKTLADGVPSRFSGSRSETQYSLKINSLQPEDFGSYYCQHFWSTPWTFGGGTKLEIK | no binding | 1.08 ng/mL | 7.18 pM | no binding |  |
| mouse anti-human IL-31 mAb from clone 292.72.3.1 (ATCC Patent Deposit Designation PTA-6816) (antibody, mouse IgG2a, V domains shown, Mouse IgG2a; assays used first round clone 292.72.3) VH: QVQVQQSGAELARPGASVKLSCKASGYTLTRYWMQWVKQRPGQGLEWIGAIYPRDGDTRYSQKFKGKATLTADKSSTTAYMQLSSLASEDSAVYYCAYPDGSYAAPNGMEYWGQGSSVTVSS VL: DIQMSQSPASLSASVGETVTITCRASGSIHNYLAWYQQKQGKSPQLLVYNAETLADGVPSRFSGSGSGTQYSLKISSLQPEDFGTYYCQHFWITPWTFGGGTKLEIK | no binding | 2 ng/mL | 13.3 pM | no binding |  |
| mouse anti-human IL-31 mAb from clone 292.51.5.2 (antibody, mouse IgG1, V domains shown, Mouse IgG1; assays used first round clone 292.51.5) VH: EVQLVESGGDLVKPGGSLKLSCAASGFTFSSFVMSWVRQSPEKRLEWVATINSGGYYSFHPDSVKGRFTISRDNAKNTLYLQMSSLRSEDTAIYYCARQEGWSSAYFSYWGQGTLVTVSA VL: DIVMTQSPSSLAMSVGQKVTMICKSSQSLLNSSNQKNYLAWYQQKPGHSPKLLVSFTSTRESGVPDRFIGSGSGTDFTLTITNMQAEDLADYFCQQHYDTPYTFGGGTKLEIR | no binding | 6.48 ng/mL | 43.2 pM | no binding |  |
| mouse anti-human IL-31 mAb from clone 292.105.4.1 (antibody, mouse IgG1, V domains shown, Mouse IgG1; assays used first round clone 292.105.4) VH: EVQLVESGGDLVKPGGSLKLSCAASGFTFSTYIMSWVRQSPEKRLEWVATINSGGYYTLYPDSVKGRFTISRDNAKNTLSLQLSSLRSEDTAMYFCARQEGWSSAWFAYWGQGTLVTVSA VL: not shown | no binding | 9.14 ng/mL | 61 pM | no binding |  |
| mouse anti-human IL-31 mAb from clone 292.39.5.3 (antibody, mouse IgG1, V domains shown, Mouse IgG1; assays used first round clone 292.39.5) VH: EVQLVESGGDLVKPGGSLKLSCAASGFTFSTYIMSWVRQSPEKRLEWVATINSGGYYTLYPDSVKGRFTISRDNVKNTLSLQLSSLRSEDTAMYFCARQEGWSSAWFAYWGQGTLVTVSA VL: not shown | no binding | 8.63 ng/mL | 57.5 pM | no binding |  |
| mouse anti-human IL-31 mAb from clone 292.64.6.5.5 (antibody, mouse IgG1, V domains shown, Mouse IgG1; assays used first round clone 292.64.6) VH: EVQLVESGGDLVKPGGSLKLSCAASGFTFSTYIMSWVRQSPEKRLEWVATINSGGYYTLYPDSVKGRFTISRDNAKNTLSLQLSSLRSEDTAMYFCARQEGWSSAWFAYWGQGTLVTVSA VL: DIVMTQSPSSLAMSVGQKVTMICNSSQSLLNSSNQKNYLAWYQQKPGQSPRLLIYFASTGESGVPDRFIGSGSGTDFTLTISNVQAEDLADYFCQQHFSTPYTFGGGTKLEIR | no binding | 10.1 ng/mL | 67 pM | no binding | 3.4 ng/mL |
| mouse anti-human IL-31 mAb from clone 292.118.6.4 (ATCC Patent Deposit Designation PTA-6830) (antibody, mouse IgG1, V domains shown, Mouse IgG1; assays used first round clone 292.118.6) VH: EVQLVESGGGLVKPGGSLKLSCAVSGFTFKTYIMSWVRQSPEKRLEWVATINSGGYYTIYPDSVKGRFTISRDNAKNTLYLQMSSLRSEDTAMYYCARQEGWSSAWFAYWGQGTLVTVSA VL: DIVMTQSPSSLAMSVGQKVTMICNSSQSLLNSSNQKNYLAWYQQRPGQSPRLLVYFASTGESGVPDRFMGSGSGTDFTLTISNVQAEDLADYFCQQHFSTPYTFGGGTKLEIR | no binding | 6.55 ng/mL | 43.7 pM | no binding |  |
| mouse anti-human IL-31 mAb from clone 292.109.4.4 (antibody, mouse IgG1, V domains shown, Mouse IgG1; assays used first round clone 292.109.4) VH: EVQLVESGGDLVKPGGSLKLSCAASGFTFSTYIMSWVRQSPEKRLEWVATINSGGYYTLYPDSVKGRFTISRDNAKNTLSLQLSSLRSEDTAMYFCARQEGWSSAWFAYWGQGTLVTVSA VL: not shown | no binding | 8.29 ng/mL | 55.2 pM | no binding |  |
| mouse anti-human IL-31 mAb from clone 294.144.3.5 (ATCC Patent Deposit Designation PTA-6873) (antibody, mouse IgG1, V domains shown, Mouse IgG1) VH: QVQLQQSGPELMKPGASVKISCKATGYTFSTYWIEWIKQRPGHGLEWIGEILPGRGTTNYNAKFQGKATFTAETSSNTAYMQLSSLTSEDSAVYYCTTESKLGDDDYWQGTTLTVSS VL: ENVLTQSPAIMSASPGERVTMTCSASSSVSYMHWYQQKSSNSPKLWIYDTTKLASGVPGRFSGSGSGNSYSLTISSMEAEDVATYFCFQGSEHPLTFGGGTTLEI | no binding |  |  | no binding | 13.4 ng/mL |
